This is an account of results in PMC7560200 (The EMBO Journal, 2020).

The test concerns the target GST-CENP-C (1-727) (human, UniProt Q03188 1-727). In words: pull-down.

Chain of GST-CENP-C (1-727) (Q03188 1-727): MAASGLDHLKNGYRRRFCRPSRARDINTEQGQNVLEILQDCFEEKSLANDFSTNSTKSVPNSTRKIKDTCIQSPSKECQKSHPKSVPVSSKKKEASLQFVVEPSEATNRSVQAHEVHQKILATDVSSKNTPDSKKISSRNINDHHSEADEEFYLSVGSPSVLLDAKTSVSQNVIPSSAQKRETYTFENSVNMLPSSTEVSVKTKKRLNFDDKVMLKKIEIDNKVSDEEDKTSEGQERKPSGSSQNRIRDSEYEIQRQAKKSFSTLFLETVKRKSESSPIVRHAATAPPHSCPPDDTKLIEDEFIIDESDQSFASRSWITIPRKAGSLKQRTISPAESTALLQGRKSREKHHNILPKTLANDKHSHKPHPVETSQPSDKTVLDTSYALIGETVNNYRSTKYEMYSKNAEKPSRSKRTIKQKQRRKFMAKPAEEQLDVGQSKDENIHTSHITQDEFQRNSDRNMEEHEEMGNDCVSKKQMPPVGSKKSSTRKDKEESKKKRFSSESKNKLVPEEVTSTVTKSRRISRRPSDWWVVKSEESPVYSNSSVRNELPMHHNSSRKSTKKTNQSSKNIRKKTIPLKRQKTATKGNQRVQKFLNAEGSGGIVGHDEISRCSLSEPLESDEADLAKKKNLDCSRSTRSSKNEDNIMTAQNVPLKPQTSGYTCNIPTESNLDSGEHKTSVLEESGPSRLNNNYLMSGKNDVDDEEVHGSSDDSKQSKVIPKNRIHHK

B1: His-CENP-B (161–599) (domain or fragment, human, UniProt P07199 161-599, looked up)
chain: PSEGSGGSTTGWRAREEQPPSVAEGYASQDVFSATETSLWYDFLPDQAAGLCGGDGRPRQATQRLSVLLCANADGSEKLPPLVAGKSAKPRAGQAGLPCDYTANSKGGVTTQALAKYLKALDTRMAAESRRVLLLAGRLAAQSLDTSGLRHVQLAFFPPGTVHPLERGVVQQVKGHYRQAMLLKAMAALEGQDPSGLQLGLTEALHFVAAAWQAVEPSDIAACFREAGFGGGPNATITTSLKSEGEEEEEEEEEEEEEEGEGEEEEEEGEEEEEEGGEGEELGEEEEVEEEGDVDSDEEEEEDEESSSEGLEAEDWAQGVVEAGGSFGAYGAQEEAQCPTLHFLEGGEDSDSDSEEEDDEEEDDEDEDDDDDEEDGDEVPVPSFGEAMAYFAMVKRYLTSFPIDDRVQSHILHLEHDLVHVTRKNHARQAGVRGLGHQS
For the molecule B1, the binding result is “binds”.
